Test results published in article PMC7512017.
Where “and” joins values, the source holds several entries; their conditions need not be identical. Equal entries are not always repeated.

Tests used:
[1] = molecular target: apo-CCP2 (C-terminal domain-like carotenoid protein 2 from Tolypothrix sp. PCC 7601, without carotenoid) (Tolypothrix sp. PCC 7601); assay: SEC; analytical SEC on a Superdex 75 column; masses estimated with protein molecular weight standards
[2] = molecular target: apo-CCP2 (C-terminal domain-like carotenoid protein 2 from Tolypothrix sp. PCC 7601, without carotenoid) (Tolypothrix sp. PCC 7601); assay: SEC-MALS + other: SEC-SAXS; SEC-SAXS-MALS, Shodex KW802.5 column, 10 mM Na-phosphate pH 7.0, 100 mM NaCl, 20 °C; samples at 5 mg/mL (legend: apo tetramer sample 10 mg/mL); also run with reductant (5 mM TCEP)
[3] = molecular target: holo-CCP2 (C-terminal domain-like carotenoid protein 2 from Tolypothrix sp. PCC 7601, with bound canthaxanthin) (Tolypothrix sp. PCC 7601); assay: SEC; analytical SEC on a Superdex 75 column; masses estimated with protein molecular weight standards
[4] = molecular target: holo-CCP2 (C-terminal domain-like carotenoid protein 2 from Tolypothrix sp. PCC 7601, with bound canthaxanthin) (Tolypothrix sp. PCC 7601); assay: SEC-MALS + other: SEC-SAXS; SEC-SAXS-MALS, Shodex KW802.5 column, 10 mM Na-phosphate pH 7.0, 100 mM NaCl, 20 °C; samples at 5 mg/mL (legend: apo tetramer sample 10 mg/mL); also run with reductant (5 mM TCEP)

| stoichiometry N [1] | stoichiometry N [2] | stoichiometry N [3] | stoichiometry N [4] | Substance |
| --- | --- | --- | --- | --- |
| 2 and 4 | 2 and 3 and 4 |  |  | apo-CCP2 (C-terminal domain-like carotenoid protein 2 from Tolypothrix sp. PCC 7601, without carotenoid) (natural protein) |
|  |  | 2 and 4 | 2 and 4 | holo-CCP2 (C-terminal domain-like carotenoid protein 2 from Tolypothrix sp. PCC 7601, with bound canthaxanthin) (natural protein) |
